{"source": "patent US20150086999", "target": "Q13093", "test": "estimated from residual CAM activity after 10 days at 4 C against enzyme concentration (dilution inactivation); self-association"}
{"protein": "recombinant lipoprotein-associated phospholipase A2 (rLp-PLA2) expressed in HEK293 cells (protein) FDWQYINPVAHMKSSAWVNKIQVLMAAASFGQTKIPRGNGPYSVGCTDLMFDHTNKGTFLRLYYPSQDNDRLDTLWIPNKEYFWGLSKFLGTHWLMGNILRLLFGSMTTPANWNSPLRPGEKYPLVVFSHGLGAFRTLYSAIGIDLASHGFIVAAVEHRDRSASATYYFKDQSAAEIGDKSWLYLRTLKQEEETHIRNEQVRQRAKECSQALSLILDIDHGKPVKNALDLKFDMEQLKDSIDREKIAVIGHSFGGATVIQTLSEDQRFRCGIALDAWMFPLGDEVYSRIPQPLFFINSEYFQYPANIIKMKKCYSPDKERKMITIRGSVHQNFADFTFATGKIIGHMLKLKGDIDSNVAIDLSNKASLAFLQKHLGLHKDFDQWDCLIEGDDENLIPGTNINTTNQHIMLQNSSGIEKYN", "values": [{"measurement": "concentration at which half is monomer and half aggregate or oligomer", "result": "At the concentration at 2.5 µg/ml or 53 nM, roughly half of rLp-PLA2 is in monomer and half forms the aggregate or oligomer as estimated"}]}
